# US20220228164A1, “ENGINEERED ANTIGEN PRESENTING CELLS” (Neogene Therapeutics B.V., priority 2021, published 2022)
# B1: CD40L transgene: hCD40L transgene expressed in BCL-6/BCL-xL immortalized B cells (protein)
# DNA: MIETYNQTSPRSAATGLPISMKIFMYLLTVFLITQMIGSALFAVYLHRRLDKIEDERNLHEDFVFMKTIQRCNTGERSLSLLNCEEIKSQFEGFVKDIMLNKEETKKENSFEMQKGDQNPQIAAHVISEASSKTTSVLQWAEKGYYTMSNNLVTLENGKQLTVKRQGLYYIYAQVTFCSNREASSQAPFIASLCLKSPGRFERILLRAANTHSSAKPCGQQSIHLGGVFELQPGASVFVNVTDPSQVSHGTGFTSFGLLKL
# Test system: TCR transduced Jurkat cells
# Assay: Co-culture of TMG-expressing immortalized B cells with TCR transduced Jurkat cells, CD69 by flow cytometry (Example 5)
# Assay type: cell-based, human
# Settings: 1:1 E:T, 20 hours co-culture
# From the text: B cells from healthy donors are isolated from PBMCs using magnetic-bead enrichment using protocols known to the skilled artisan and subsequently immortalized either by EBV infection or transduction with BCL-6/BCL-xL with methods known to the skilled artisan and as described herein (Example 10). Non-EBV immortalized B cells are either transduced with BCL-6/BCL-xL alone or co-transduced with CD40L transgene. Retroviral supernatant for B cell transduction is produced using methods known to a person skilled in the art and as described in this invention (Example 10). B cells are retrovirally transduced with different TMG constructs. The example presents different TMG designs encoding varying numbers of 25mer epitopes (1, 3, 12 or 40 epitopes) with or without LAMP1 signaling and transmembrane sequences. 96 hours after transduction, TMG-expressing B cells are enriched based on puromycin resistance using protocols described in the art and this invention (Example 10). In brief, BCL-6/BCL-xL immortalized B cells are cultured in complete B cell medium (RPMI1640 medium supplemented with 10% (v/v) Fetal Calf Serum (FCS), 1% (v/v) Penicillin/Streptomycin (P/S), 1% (v/v) Sodium Pyruvate, 1% (v/v) Non-essential amino acids, 1% (v/v) Glutamax, 50 nM 2-Mercaptoethanol) containing rh-IL-21 (50 ng/mL) and 1 ug/ml puromycin and at a density of 200,000-250,000 cells/ml for 96 hours. […]
molecule,measurement,value
B1,MHC-class II restricted antigen-presentation (CD69 expression by TCR transduced Jurkat cells),can enhance
